The text below walks through data of patent US11856945B2, “Methods and systems for preparing and preserving a biological sample” (Washington University, priority 2017, dated 2024).

Data set [1] can be described thus: Release of insulin from ZIF-8 encapsulation by EDTA. It counts as physicochemical. To be noted: 30 mM zinc acetate with 120 mM 2-methylimidazole. The source says: Elevated temperature is the primary detrimental condition during insulin transport and storage, an issue likely to be exacerbated by the increasing epidemic of diabetes in the developing countries, where refrigeration or “cold chain” facilities are not guaranteed. At high temperatures, insulin undergoes both physical (such as unfolding, non-native aggregation and fibrillation) and chemical degradations (such as deamidation, disulfide destruction and reshuffling). […] After 1 week, the ZIF-8 encapsulated insulin was released by adding ethylenediaminetetraacetic acid (EDTA) to dissociate the ZIF-8 crystals by breaking the coordination bonds between zinc and 2-methylimidazole (FIG. 25). The released insulin and unencapsulated insulin were then quantified by ELISA. The preservation efficacy (insulin recovery %) was calculated by comparing the recovered amount of insulin to the insulin amount prior to incubation. […] Compared to the optimal precursor concentrations, the low insulin recovery upon using 10 mM zinc acetate with 40 mM 2-methylimidazole is attributed to the incomplete encapsulation of insulin (FIG. 24). […] The insulin amount in the solution was measured by ELISA and compared with total insulin amount before encapsulation. […]

For data set [2], the system named is STZ-induced type 1 diabetic mice. To be noted: mouse, in vivo.
Procedure: STZ-induced male C57BL/6 (6-10 weeks) type 1 diabetic mice were purchased from Jackson Laboratory (USA). The blood glucose levels of mice were tested 1 day before administration by collecting blood (˜3 μL) from the tail vein and measuring using the Clarity GL2Plus glucose monitor (VWR, USA). The mice were randomly divided into four groups (3 mice each group) and intravenously injected via lateral tail vein with PBS solution, insulin stored at −20° C., ZIF-8 preserved insulin (dissociated by EDTA) and insulin alone stored at 40° C. for 1 week, respectively. The insulin dose for each mouse was 1 mg/kg (125 μg/mL, ˜200 μL). The blood glucose level was measured from tail vein blood samples (˜3 μL) of mice at different time points (at 10, 20, 40, and 60 min, and once per hour afterward for the first 12 h in the day of administration). Mice were anesthetized with 2% isoflurane. The mice treated with ZIF-8 preserved insulin and PBS were sacrificed after 5 days administration, and major organs were collected and sliced for haematoxylin and eosin (H&E) staining.
Data set [3] relates to streptozotocin-induced type 1 diabetic mice. Put plainly: Blood glucose in streptozotocin-induced type 1 diabetic mice. It counts as in vivo. The settings on record: 1 mg/kg intravenous. How it is done:
After establishing the chemical stability and structural integrity of ZIF-8 encapsulated insulin, the biological activity of ZIF-8 encapsulated insulin was assessed by measuring the effectiveness of ZIF-8 encapsulated insulin for treating hyperglycemia in streptozotocin-induced type 1 diabetic mice. […] The ZIF-8 encapsulated insulin was released by adding EDTA before injection. The blood glucose concentrations of mice in each group were then monitored for 12 h. […] Histological evaluation of the major organs of the mice at 5 days after intravenous injection of PBS or stabilized insulin. […] The ZIF-8 encapsulated insulin was released by adding EDTA before injection. Results are the mean±standard deviation (n=3). […] The partial loss of insulin bioactivity here could be attributed to the loss of structure integrity of insulin at elevated temperatures as confirmed by the aforementioned ELISA, CD and HPLC experiments.
Mice were anesthetized with 2% isoflurane.

Data set [4] can be described thus: Circular dichroism of insulin secondary structure. It counts as physicochemical. The protocol: To further confirm that ZIF-8 encapsulation preserves the insulin structure, circular dichroism (CD) spectroscopy was employed to characterize the secondary structure of insulin with and without ZIF-8 encapsulation after 1 week incubation at 40° C. (FIG. 26D). […] Inset: Secondary structure content of the three types of insulin obtained from the CD spectra. […] FIG. 30 discloses the following: Left: CD spectra of pristine insulin prior to agitation, released insulin from ZIF-8 encapsulation after 48 h agitation at 200 rpm and insulin without ZIF-8 encapsulation after 48 h agitation at 200 rpm; Right: secondary structure content of the three types of insulin obtained from the CD spectra. […] FIG. 31 discloses the following: Left: CD spectra of pristine insulin prior to exposure to ethyl acetate, released insulin from ZIF-8 encapsulation after exposure to ethyl acetate for 6 h and insulin without ZIF-8 encapsulation after exposure to ethyl acetate for 6 h; and, right: secondary structure content of the three types of insulin obtained from the CD spectra. […]
Circular dichroism (CD) spectroscopy. […] The insulin recovered from various treatments was quantified by BCA assay and diluted to 100 μg/mL in PBS. The secondary structures of insulin (α-helical content, β-sheet content) were analyzed using CDPro software from CD spectra.

Data set [5] in a line: Preservation of CA-125 spiked in serum/plasma dried on paper (ELISA). It counts as physicochemical. The source says:
Further attention was given to blood (and components serum and plasma), the most common biospecimens in biological and clinical studies. Compared to urine, serum or plasma represents a more complex biological matrix due to the presence of large amount of various proteins such as albumin, globulins and fibrinogen. Before proceeding to assess the preservation of specific protein biomarker, it was confirmed that different types of proteins are extracted from the paper substrates containing dried serum with or without ZIF-8 encapsulation using sodium dodecyl sulfate-polyacrylamide gel electrophoresis (SDS-PAGE), indicating the potential of this technique in preserving multiple protein biomarkers simultaneously in serum or plasma (FIG. 16). […] Lane a, c and e are corresponding to eluate of volunteer #1, #2 and #3 serum without ZIF-8 encapsulation, respectively. Lane b, d and f are corresponding to eluate of volunteer #1, #2 and #3 serum with ZIF-8 encapsulation, respectively. CA-125, a serum biomarker for ovarian cancer, was used as the model protein and spiked into serum from healthy people. Considering extremely high concentration of serum proteins, the serum was first diluted (5-, 10- or 20-fold) before spiking CA-125 and adding ZIF-8 precursors to ensure ZIF-8 formation and more complete encapsulation. The CA-125 spiked serum samples, both with and without ZIF-8 encapsulation, were dried on paper and stored at 40° C. for 1 week. […] The poor preservation of CA-125 from 5- and 10-fold diluted serum was due to the incomplete ZIF-8 formation and encapsulation (FIG. 18). The encapsulation efficiency was calculated by subtracting the remaining CA-125 amount in the supernatant after encapsulation and centrifugation (concentration measured by ELISA) from the total CA-125 amount. […] Subsequently, CA-125 was spiked into three different matrices that represent typical blood-derived biospecimens (serum, heparin-anticoagulated plasma and EDTA-anticoagulated plasma from healthy people with 20-fold dilution), dried on paper substrates with and without ZIF-8 encapsulation, and subsequently stored at 25, 40, or 60° C. for different durations of time. CA-125 concentration in the eluate was quantified using sandwich ELISA. […] (FIG. 17D-F). FIGS. 17D-F show preservation efficacy of CA-125 spiked in serum, heparin-plasma or EDTA-plasma on paper card at 25, 40 or 60° C. for different durations.
Sample preparation. NGAL-spiked artificial urine (50 μg/ml of NGAL, 25 μl) or patient urine (25 μl) was first mixed with 2-methylimidazole aqueous solution (12.5 μl) and then zinc acetate dihydrate aqueous solution (12.5 μl). The final concentrations of 2-methylimidazole after mixing were 320 mM, 160 mM, 80 mM and 40 mM. […]

Data set [6] can be described thus: Preservation of CA-125 spiked in fresh blood under temperature fluctuations and shipping. It counts as physicochemical. The settings on record: plasma from spiked fresh blood, 20-fold diluted; 8 days 25/40° C. temperature cycles or 10 days shipping. The protocol: The applicability of this technique was assessed to preserve blood samples drawn in resource-limited settings. Unlike serum and plasma, in some embodiments the presence of a large quantity of whole cells (red and white blood cells and platelets) in blood affects ZIF-8 encapsulation of target protein biomarkers. Considering that in some embodiments ZIF-8 also forms a thick layer on cell surfaces56 and lead to incomplete encapsulation or preservation of target protein biomarkers, it is important to remove blood cells through centrifugation before ZIF-8 encapsulation of protein biomarkers. Unfortunately, centrifuge is typically inaccessible in resource-limited settings considering that conventional systems are bulky, expensive and electrically-powered. A hand-powered centrifuge was implemented that was able to separate plasma from whole blood within 10 minutes for subsequent ZIF-8 encapsulation (FIG. 19A). In order to mimic fresh whole blood samples from ovarian cancer patients, four different concentrations of CA-125 within pathological-relevant range from 25 ng/ml-25 μg/ml were spiked into fresh blood from healthy volunteers.58-59 Then the plasma samples (heparin-anticoagulated) were separated from blood and diluted 20-fold for ZIF-8 encapsulation. To assess the preservation efficacy of this approach under unregulated conditions, two sets of experiments were devised. […]

Consider “unencapsulated insulin: human recombinant insulin in solution without ZIF-8 encapsulation”, for which, in data set [1], the “release of insulin from ZIF-8 by EDTA” value was roughly 90%. For the same substance, the “Mice weight Before” value in data set [2] came out at 22.0 ± 0.2 g. Further, the “effect on blood glucose concentrations” value in data set [3] is recorded as “only moderately decreased glucose concentrations”. In addition, the “secondary structure (CD spectrum)” value in data set [4] (1 week incubation at 40° C., versus pristine insulin) is “an increase in the β-sheet content along with the decrease in the α-helical content”; in data set [4] (after mechanical agitation (48 h at 200 rpm)) it was “from an overall rich helical to dominant β-sheet structure”.

In the case of “Insulin at −20° C.: unencapsulated insulin solution stored frozen at −20° C., the gold standard control”, in data set [3], the “time blood glucose maintained in the normoglycemic range” value is recorded as 4 h. Moreover, in data set [3] (within 12 h), the “blood glucose after return to hyperglycemic range” value is given as roughly 550 mg/dL.

With cancer antigen 125 [CA-125], the CA-125 preservation is roughly 90% in data set [5] (20-fold diluted serum, with ZIF-8 encapsulation, 40° C., one week); roughly 50% in data set [5] (serum, heparin-plasma and EDTA-plasma (20-fold dilution), 25° C., 4 weeks); roughly 40% in data set [5] (serum, heparin-plasma and EDTA-plasma (20-fold dilution), 40° C., 4 weeks); roughly 30% in data set [5] (serum, heparin-plasma and EDTA-plasma (20-fold dilution), 60° C., 4 weeks); 50-60% in data set [6].
